Measurements reported in patent US20230331872A1 (CYTOIMMUNE THERAPEUTICS, published 2023).

T1: Recombinant Human NKG2D, amino acid Phe78-Val216 (Accession #P26718) (Biolegends, #781908) (human, UniProt P26718 78-216)
T1 construct: range 78-216; Bought reagent; also called NKG2D-fusion protein; CD314
T1 sequence (looked up): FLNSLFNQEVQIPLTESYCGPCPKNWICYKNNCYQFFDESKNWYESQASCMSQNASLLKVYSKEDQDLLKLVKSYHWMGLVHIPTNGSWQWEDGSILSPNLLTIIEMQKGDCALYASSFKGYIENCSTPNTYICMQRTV


Target: T1, Recombinant Human NKG2D, amino acid …
Assay: home developed BiKE detection ELISA with NKG2D-fusion protein coated plate, 72 h serum-free NK cell supernatant
Procedure: An unique ELISA assay was developed for detecting the concentration of full human Source Scfv-anti NKG2D and GPRCSD. Firstly, the Nunc MaxiSorp™ flat-bottom plate (Invitrogen™, 44-2404-21) was coated with 100 ng/well of Recombinant Human NKG2D, amino acid Phe78-Va1216 (Accession #P26718) (Biolegends, #781908) dissolved in 100 μl of DPBS (Gibco, 14190) at 4 degree overnight. After washing with 1x DPBS buffer with final 0.05% Tween 20 and blocking with 1% BSA in 1x DPBS buffer with final 0.05% Tween 20, 100 μl of samples and standard in blocking buffer were added to each well. The standard used in this assay was a human anti human NKG2D antibody, CD314 (NKG2D)-PE, human, Cat: 130-111-645, recombinant human IgG1, Miltenyi Biotec GmbH (0.25 mg/ml). For detection, a Biotinylated Goat anti-Human IgG (H+L) Cross-Adsorbed Secondary Antibody and HRP-Conjugated Streptavidin (Thermo Scientific™, N100), as well as 1-Step™ Ultra TMB-ELISA Substrate Solution, (Bio-Rad #34029). Stop buffer used was 1 M H₃PO₄.
0.5-1×10⁶ transduced NK cells (FIG. 39) were seeded and cultured in serum free media for 72 hours. Supernatant was subsequently collected, centrifuged, and immediately added to IL-15 pre-coated ELISA plate (R&D Systems S1500) and home developed BiKE detection ELISA with NKG2D-fusion protein coated plate. […] Data present here was as average concentration from four independent donors as mean±SD.

Binder	binding result
GPRC5D-NKG2D BiKE (GN1-BiKE) secreted from NK cells transduced with P61: GN1-BiKE BCMA-CAR--SIL-15-RQR8 (bispecific antibody, human IgG4 S228P, F234A L235A, N297Q, also called IL2 SP BiKE; GPRC5D-NKG2D BiKE-BCMA CAR-SIL-15-RQR8-P61) DIQMTQSPSSLSASVGDRVTITCKASQNVATHVGWYQQKPGKAPKRLIYSASYRYSGVPSRFSGSGSGTEFTLTISNLQPEDFATYYCQQYNRYPYTFGQGTKLEIKGGGGSGGGGSGGGGSQVQLVQSGAEVKKPGASVKVSCKASGYSFTGYTMNWVRQAPGQGLEWMGLINPYNSDTNYAQKLQGRVTMTTDTSTSTAYMELRSLRSDDTAVYYCARVALRVALDYWGQGTLVTVSSPSGQAGAAASESLFVSNHAYQSALTQPASVSGSPGQSITISCSGSSSNIGNNAVNWYQQLPGKAPKLLIYYDDLLPSGVSDRFSGSKSGTSAFLAISGLQSEDEADYYCAAWDDSLNGPVFGGGTKLTVLGGGGSGGGGSGGGGSQVQLVESGGGLVKPGGSLRLSCAASGFTFSSYGMHWVRQAPGKGLEWVAFIRYDGSNKYYADSVKGRFTISRDNSKNTLYLQMNSLRAEDTAVYYCAKDRGLGDGTYFDYWGQGTTVTVSSESKYGPPCPPCPAPEAAGGPSVFLFPPKPKDTLMISRTPEVTCVVVDVSQEDPEVQFNWYVDGVEVHNAKTKPREEQFQSTYRVVSVLTVLHQDWLNGKEYKCKVSNKGLPSSIEKTISKAKGQPREPQVYTLPPSQEEMTKNQVSLTCLVKGFYPSDIAVEWESNGQPENNYKTTPPVLDSDGSFFLYSRLTVDKSRWQEGNVFSCSVMHEALHNHYTQKSLSLSLGK	binds
NKG2D-GPRC5D BiKE (NG2-BiKE) secreted from NK cells transduced with P62: NG2-BiKE BCMA-CAR--SIL-15-RQR8 (bispecific antibody, human IgG4 S228P, F234A L235A, N297Q, also called IL2 SP BiKE; NKG2D-GPRC5D BiKE-BCMA CAR-SIL-15-RQR8-P62) QVQLVESGGGLVKPGGSLRLSCAASGFTFSSYGMHWVRQAPGKGLEWVAFIRYDGSNKYYADSVKGRFTISRDNSKNTLYLQMNSLRAEDTAVYYCAKDRGLGDGTYFDYWGQGTTVTVSSGGGGSGGGGSGGGGSQSALTQPASVSGSPGQSITISCSGSSSNIGNNAVNWYQQLPGKAPKLLIYYDDLLPSGVSDRFSGSKSGTSAFLAISGLQSEDEADYYCAAWDDSLNGPVFGGGTKLTVLPSGQAGAAASESLFVSNHAYQVQLVQSGAEVKKPGASVKVSCKASGYSFTGYTMNWVRQAPGQGLEWMGLINPYNSDTNYAQKLQGRVTMTTDTSTSTAYMELRSLRSDDTAVYYCARVALRVALDYWGQGTLVTVSSGGGGSGGGGSGGGGSDIQMTQSPSSLSASVGDRVTITCKASQNVATHVGWYQQKPGKAPKRLIYSASYRYSGVPSRFSGSGSGTEFTLTISNLQPEDFATYYCQQYNRYPYTFGQGTKLEIKESKYGPPCPPCPAPEAAGGPSVFLFPPKPKDTLMISRTPEVTCVVVDVSQEDPEVQFNWYVDGVEVHNAKTKPREEQFQSTYRVVSVLTVLHQDWLNGKEYKCKVSNKGLPSSIEKTISKAKGQPREPQVYTLPPSQEEMTKNQVSLTCLVKGFYPSDIAVEWESNGQPENNYKTTPPVLDSDGSFFLYSRLTVDKSRWQEGNVFSCSVMHEALHNHYTQKSLSLSLGK	binds
